Data published in article PMC7904446 (Cell Host & Microbe, 2021).

Tests used:
[1] = target: T1, SARS-CoV-2 spike trimer protein (SARS-CoV-2, Wuhan-Hu-1 reference, UniProt P0DTC2); test: SPR
[2] = target: T1, SARS-CoV-2 spike trimer protein; test: cell-based or functional assay

Binder | Kd [1] | neutralisation of live SARS-CoV-2, IC50; blocks S binding to ACE2 [2] | pseudovirus neutralisation in 293T-ACE2 cells, IC90; blocks S binding to ACE2 [2]
ZDY20 human monoclonal antibody, IgG1 (antibody, V domains shown) VH: EVQLVETGGGLIQPGGSLRLSCAASGITVSSNYMSWVRQAPGKGLEWVSVIYSGGSTYYADSVKGRFTISRDNSKNTLYLQMNSLRAEDTAVYYCAREGLGDGYNAIAGLGFDLWGRGTLVTVSS VL: DIVMTQSPSSLSASVGDSVTITCQASQDINNYLNWYQQKPGRAPELLINDASNLEAGVPSRFSGSGSGTDFTLTISSLQTEDFATYYCQQYGSLPYTFGQGTKLDIR | 8.8 nM | 0.35 µg/mL | 1.24 µg/mL
ZDY28 human monoclonal antibody, IgG1 (antibody, V domains shown) VH: EVQLVQSGGGVVQPGRSLRLSCAASGFTFSSYGMHWVRQAPGKGLEWVAVISYDGSNKYYADSVKGRFTISRDNSKNTLYLQMNSLRAEDTAVYYCASRSTVVPAAIFAFDIWGQGTMVTVSS VL: not shown | 10.2 nM |  | 7.47 µg/mL
ZDY49 human monoclonal antibody, IgG1 (antibody, V domains shown) VH: EVQLVESGGGVVQPGRSLRLSCAASGFTFSSYGMHWVRQAPGKGLEWVAVISYDGSNKYYADSVKGRFTISRDNSKNTLYLQMNSLRAEDTAVYYCASRSTVVPAAIFAFDIWGQGTMVTVSS VL: not shown | 24.4 nM |  | 17.1 µg/mL
ZDY95 human monoclonal antibody, IgG1 (antibody, V domains shown) VH: EVQLVQSGGGVVQPGRSLRLSCAASGFTFSSYGMHWVRQAPGKGLEWVAVISYDGSNKYYADSVKGRFTISRDNSKNTLYLQMNSLRAEDTAVYYCASRSTVVPAAIFAFDIWGQGTMVTVSS VL: not shown | 15 nM |  | 13.3 µg/mL
